From publication PMC9482650, “Quantitative fragmentomics allow affinity mapping of interactomes” (Nature Communications, 2022)

T1: ARHGAP21, Q5T5U3
T1 sequence (Q5T5U3 45-169, limits assumed, looked up): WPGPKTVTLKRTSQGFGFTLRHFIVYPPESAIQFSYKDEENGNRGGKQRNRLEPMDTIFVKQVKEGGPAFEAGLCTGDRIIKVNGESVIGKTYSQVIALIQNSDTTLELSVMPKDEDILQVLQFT

T2: PDZD7_3, Q9H5P4
T2 sequence (Q9H5P4 857-944, limits assumed, looked up): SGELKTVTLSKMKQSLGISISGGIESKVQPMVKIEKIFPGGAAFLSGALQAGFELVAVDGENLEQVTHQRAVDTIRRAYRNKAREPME

T3: NHERF3_3, Q5T2W1
T3 sequence (Q5T2W1 238-333, limits assumed, looked up): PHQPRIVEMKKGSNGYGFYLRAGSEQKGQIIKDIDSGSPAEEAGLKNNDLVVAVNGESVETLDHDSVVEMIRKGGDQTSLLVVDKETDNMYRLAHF

T4: APBA2_2, Q99767
T4 sequence (Q99767 654-744, limits assumed, looked up): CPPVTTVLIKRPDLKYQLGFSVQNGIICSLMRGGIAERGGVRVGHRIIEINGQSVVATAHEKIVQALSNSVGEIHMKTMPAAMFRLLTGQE

T5: LRRC7, Q96NW7
T5 sequence (Q96NW7 1440-1537, limits assumed, looked up): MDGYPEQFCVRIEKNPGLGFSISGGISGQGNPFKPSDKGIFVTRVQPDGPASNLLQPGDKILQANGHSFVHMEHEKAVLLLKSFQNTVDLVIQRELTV

T6: NHERF3_4, Q5T2W1
T6 sequence (Q5T2W1 373-468, limits assumed, looked up): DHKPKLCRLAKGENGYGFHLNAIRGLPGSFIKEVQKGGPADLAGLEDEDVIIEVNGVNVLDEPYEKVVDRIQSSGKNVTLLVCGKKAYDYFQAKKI

T7: FRMPD1, Q5SYB0
T7 sequence (Q5SYB0 52-145, limits assumed, looked up): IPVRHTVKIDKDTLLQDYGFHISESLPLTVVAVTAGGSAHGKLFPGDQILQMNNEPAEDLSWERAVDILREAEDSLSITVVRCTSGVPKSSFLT

T8: TJP3_3, O95049
T8 sequence (O95049 375-456, limits assumed, looked up): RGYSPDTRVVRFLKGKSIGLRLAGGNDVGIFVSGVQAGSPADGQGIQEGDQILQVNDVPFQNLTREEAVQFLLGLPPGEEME

T9: HTRA3, P83110
T9 sequence (P83110 354-453, limits assumed, looked up): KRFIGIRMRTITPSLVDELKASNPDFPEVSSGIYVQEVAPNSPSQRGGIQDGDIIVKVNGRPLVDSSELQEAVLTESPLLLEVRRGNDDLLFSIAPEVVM

T10: APBA2_1, Q99767
T10 sequence (Q99767 563-664, limits assumed, looked up): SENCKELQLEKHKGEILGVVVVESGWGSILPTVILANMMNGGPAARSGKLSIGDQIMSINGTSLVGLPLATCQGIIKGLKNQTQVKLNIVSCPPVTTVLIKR

T11: PDZD2_2, O15018
T11 sequence (O15018 329-429, limits assumed, looked up): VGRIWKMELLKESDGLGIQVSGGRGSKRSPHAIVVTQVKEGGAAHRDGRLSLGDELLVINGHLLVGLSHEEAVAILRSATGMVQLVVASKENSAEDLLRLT

T12: LNX2_3, Q8N448
T12 sequence (Q8N448 463-564, limits assumed, looked up): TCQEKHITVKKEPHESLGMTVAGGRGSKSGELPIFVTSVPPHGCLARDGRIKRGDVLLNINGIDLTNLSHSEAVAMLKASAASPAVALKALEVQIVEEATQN

T13: GRIP1_3, Q9Y3R0
T13 sequence (Q9Y3R0 247-346, limits assumed, looked up): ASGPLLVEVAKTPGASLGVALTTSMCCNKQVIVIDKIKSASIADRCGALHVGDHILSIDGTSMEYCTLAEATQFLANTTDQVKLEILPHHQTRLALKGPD


The binders below were run against T1, ARHGAP21, Q5T5U3 (assay: holdup assay). Conditions: plain residues with an end cap or a label only (N-terminal biotin on a linker: ado-ado).
Set-up: key: below the threshold = too weak to quantify, mostly under pKd 3.1 to 4

pKd | Binder
3.83 | FVFESRKEIL [TBPL1, P62380]
below the threshold | PLATCDETSI [SEMA4F, O95754]

The binders below were run against DLG2_3, Q15700 (assay: holdup assay). Conditions: plain residues with an end cap or a label only (N-terminal biotin on a linker: ado-ado).
Set-up: key: below the threshold = too weak to quantify, mostly under pKd 3.1 to 4

pKd | Binder
below the threshold | FVFESRKEIL [TBPL1, P62380]
3.9 | PLATCDETSI [SEMA4F, O95754]

What follows are binders tested against TJP1_3, Q07157 (assay: holdup assay). Conditions: plain residues with an end cap or a label only (N-terminal biotin on a linker: ado-ado).
Set-up: key: below the threshold = too weak to quantify, mostly under pKd 3.1 to 4

Sequence of TJP1_3, Q07157 (Q07157 416-512): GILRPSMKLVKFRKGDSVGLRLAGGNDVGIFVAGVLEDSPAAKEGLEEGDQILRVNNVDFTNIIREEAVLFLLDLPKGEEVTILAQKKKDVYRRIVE

pKd | Binder
below the threshold | FVFESRKEIL [TBPL1, P62380]
below the threshold | PLATCDETSI [SEMA4F, O95754]

The binders below were run against Inadl_9, Q8NI35 (assay: holdup assay). Conditions: plain residues with an end cap or a label only (N-terminal biotin on a linker: ado-ado).
Set-up: key: below the threshold = too weak to quantify, mostly under pKd 3.1 to 4

Sequence of Inadl_9, Q8NI35 (Q8NI35 1530-1615): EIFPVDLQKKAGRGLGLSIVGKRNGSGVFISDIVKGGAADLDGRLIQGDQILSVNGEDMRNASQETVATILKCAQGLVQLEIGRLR

pKd | Binder
below the threshold | FVFESRKEIL [TBPL1, P62380]
below the threshold | PLATCDETSI [SEMA4F, O95754]

The binders below were run against Inadl_5, Q8NI35 (assay: holdup assay). Conditions: plain residues with an end cap or a label only (N-terminal biotin on a linker: ado-ado).
Set-up: key: below the threshold = too weak to quantify, mostly under pKd 3.1 to 4

Sequence of Inadl_5, Q8NI35 (Q8NI35 673-780): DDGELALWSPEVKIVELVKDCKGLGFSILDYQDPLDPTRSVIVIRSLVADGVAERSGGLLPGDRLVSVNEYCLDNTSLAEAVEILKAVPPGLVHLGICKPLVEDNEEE

pKd | Binder
below the threshold | FVFESRKEIL [TBPL1, P62380]
below the threshold | PLATCDETSI [SEMA4F, O95754]

Each binder was assayed against IL16_3, Q14005 (assay: holdup assay). Conditions: plain residues with an end cap or a label only (N-terminal biotin on a linker: ado-ado).
Set-up: key: below the threshold = too weak to quantify, mostly under pKd 3.1 to 4

Sequence of IL16_3, Q14005 (Q14005 1107-1207): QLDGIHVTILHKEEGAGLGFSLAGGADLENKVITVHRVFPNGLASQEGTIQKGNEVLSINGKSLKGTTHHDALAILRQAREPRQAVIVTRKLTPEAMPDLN

pKd | Binder
below the threshold | FVFESRKEIL [TBPL1, P62380]
below the threshold | PLATCDETSI [SEMA4F, O95754]

Each binder was assayed against T2, PDZD7_3, Q9H5P4 (assay: holdup assay). Conditions: plain residues with an end cap or a label only (N-terminal biotin on a linker: ado-ado).
Set-up: key: below the threshold = too weak to quantify, mostly under pKd 3.1 to 4

pKd | Binder
3.99 | FVFESRKEIL [TBPL1, P62380]
4.43 | PLATCDETSI [SEMA4F, O95754]

What follows are binders tested against Inadl_3, Q8NI35 (assay: holdup assay). Conditions: plain residues with an end cap or a label only (N-terminal biotin on a linker: ado-ado).
Set-up: key: below the threshold = too weak to quantify, mostly under pKd 3.1 to 4

Sequence of Inadl_3, Q8NI35 (Q8NI35 359-469): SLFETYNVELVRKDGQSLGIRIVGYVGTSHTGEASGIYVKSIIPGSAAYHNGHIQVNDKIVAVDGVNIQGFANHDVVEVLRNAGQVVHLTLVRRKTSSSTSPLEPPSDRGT

pKd | Binder
below the threshold | FVFESRKEIL [TBPL1, P62380]
below the threshold | PLATCDETSI [SEMA4F, O95754]

What follows are binders tested against T3, NHERF3_3, Q5T2W1 (assay: holdup assay). Conditions: plain residues with an end cap or a label only (N-terminal biotin on a linker: ado-ado).
Set-up: key: below the threshold = too weak to quantify, mostly under pKd 3.1 to 4

pKd | Binder
below the threshold | FVFESRKEIL [TBPL1, P62380]
below the threshold | PLATCDETSI [SEMA4F, O95754]

The binders below were run against T4, APBA2_2, Q99767 (assay: holdup assay). Conditions: plain residues with an end cap or a label only (N-terminal biotin on a linker: ado-ado).
Set-up: key: below the threshold = too weak to quantify, mostly under pKd 3.1 to 4

pKd | Binder
below the threshold | FVFESRKEIL [TBPL1, P62380]
below the threshold | PLATCDETSI [SEMA4F, O95754]

What follows are binders tested against GOPC, Q9HD26 (assay: holdup assay). Conditions: plain residues with an end cap or a label only (N-terminal biotin on a linker: ado-ado).
Set-up: key: below the threshold = too weak to quantify, mostly under pKd 3.1 to 4

pKd | Binder
below the threshold | FVFESRKEIL [TBPL1, P62380]
below the threshold | PLATCDETSI [SEMA4F, O95754]

Each binder was assayed against T5, LRRC7, Q96NW7 (assay: holdup assay). Conditions: plain residues with an end cap or a label only (N-terminal biotin on a linker: ado-ado).
Set-up: key: below the threshold = too weak to quantify, mostly under pKd 3.1 to 4

pKd | Binder
below the threshold | FVFESRKEIL [TBPL1, P62380]
below the threshold | PLATCDETSI [SEMA4F, O95754]

Each binder was assayed against T6, NHERF3_4, Q5T2W1 (assay: holdup assay). Conditions: plain residues with an end cap or a label only (N-terminal biotin on a linker: ado-ado).
Set-up: key: below the threshold = too weak to quantify, mostly under pKd 3.1 to 4

pKd | Binder
below the threshold | FVFESRKEIL [TBPL1, P62380]
below the threshold | PLATCDETSI [SEMA4F, O95754]

These binders were tested against T7, FRMPD1, Q5SYB0 (assay: holdup assay). Conditions: plain residues with an end cap or a label only (N-terminal biotin on a linker: ado-ado).
Set-up: key: below the threshold = too weak to quantify, mostly under pKd 3.1 to 4

pKd | Binder
below the threshold | FVFESRKEIL [TBPL1, P62380]
below the threshold | PLATCDETSI [SEMA4F, O95754]

What follows are binders tested against T8, TJP3_3, O95049 (assay: holdup assay). Conditions: plain residues with an end cap or a label only (N-terminal biotin on a linker: ado-ado).
Set-up: key: below the threshold = too weak to quantify, mostly under pKd 3.1 to 4

pKd | Binder
below the threshold | FVFESRKEIL [TBPL1, P62380]
below the threshold | PLATCDETSI [SEMA4F, O95754]

Each binder was assayed against MAST1, Q9Y2H9 (assay: holdup assay). Conditions: plain residues with an end cap or a label only (N-terminal biotin on a linker: ado-ado).
Set-up: key: below the threshold = too weak to quantify, mostly under pKd 3.1 to 4

Sequence of MAST1, Q9Y2H9 (Q9Y2H9 962-1065): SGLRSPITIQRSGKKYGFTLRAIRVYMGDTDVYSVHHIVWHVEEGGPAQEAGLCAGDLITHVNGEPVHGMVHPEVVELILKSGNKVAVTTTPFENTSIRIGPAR

pKd | Binder
4.21 | FVFESRKEIL [TBPL1, P62380]
4.64 | PLATCDETSI [SEMA4F, O95754]

Each binder was assayed against T9, HTRA3, P83110 (assay: holdup assay). Conditions: plain residues with an end cap or a label only (N-terminal biotin on a linker: ado-ado).
Set-up: key: below the threshold = too weak to quantify, mostly under pKd 3.1 to 4

pKd | Binder
below the threshold | FVFESRKEIL [TBPL1, P62380]
below the threshold | PLATCDETSI [SEMA4F, O95754]

These binders were tested against T10, APBA2_1, Q99767 (assay: holdup assay). Conditions: plain residues with an end cap or a label only (N-terminal biotin on a linker: ado-ado).
Set-up: key: below the threshold = too weak to quantify, mostly under pKd 3.1 to 4

pKd | Binder
below the threshold | FVFESRKEIL [TBPL1, P62380]
below the threshold | PLATCDETSI [SEMA4F, O95754]

These binders were tested against FRMPD3, Q5JV73 (assay: holdup assay). Conditions: plain residues with an end cap or a label only (N-terminal biotin on a linker: ado-ado).
Set-up: key: below the threshold = too weak to quantify, mostly under pKd 3.1 to 4

Sequence of FRMPD3, Q5JV73 (Q5JV73 12-100): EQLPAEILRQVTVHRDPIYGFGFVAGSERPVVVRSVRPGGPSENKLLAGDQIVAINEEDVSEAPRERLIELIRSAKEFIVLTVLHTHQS

pKd | Binder
below the threshold | FVFESRKEIL [TBPL1, P62380]
below the threshold | PLATCDETSI [SEMA4F, O95754]

What follows are binders tested against T11, PDZD2_2, O15018 (assay: holdup assay). Conditions: plain residues with an end cap or a label only (N-terminal biotin on a linker: ado-ado).
Set-up: key: below the threshold = too weak to quantify, mostly under pKd 3.1 to 4

pKd | Binder
below the threshold | FVFESRKEIL [TBPL1, P62380]
4.47 | PLATCDETSI [SEMA4F, O95754]

What follows are binders tested against T12, LNX2_3, Q8N448 (assay: holdup assay). Conditions: plain residues with an end cap or a label only (N-terminal biotin on a linker: ado-ado).
Set-up: key: below the threshold = too weak to quantify, mostly under pKd 3.1 to 4

pKd | Binder
below the threshold | FVFESRKEIL [TBPL1, P62380]
below the threshold | PLATCDETSI [SEMA4F, O95754]

The binders below were run against LNX1_1, Q8TBB1 (assay: holdup assay). Conditions: plain residues with an end cap or a label only (N-terminal biotin on a linker: ado-ado).
Set-up: key: below the threshold = too weak to quantify, mostly under pKd 3.1 to 4

Sequence of LNX1_1, Q8TBB1 (Q8TBB1 261-371): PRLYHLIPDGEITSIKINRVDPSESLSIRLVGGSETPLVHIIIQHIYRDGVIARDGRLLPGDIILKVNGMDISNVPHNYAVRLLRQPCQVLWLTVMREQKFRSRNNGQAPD

pKd | Binder
below the threshold | FVFESRKEIL [TBPL1, P62380]
below the threshold | PLATCDETSI [SEMA4F, O95754]

These binders were tested against DLG1_1, Q12959 (assay: holdup assay). Conditions: plain residues with an end cap or a label only (N-terminal biotin on a linker: ado-ado).
Set-up: key: below the threshold = too weak to quantify, mostly under pKd 3.1 to 4

pKd | Binder
below the threshold | FVFESRKEIL [TBPL1, P62380]
3.59 | PLATCDETSI [SEMA4F, O95754]

These binders were tested against T13, GRIP1_3, Q9Y3R0 (assay: holdup assay). Conditions: plain residues with an end cap or a label only (N-terminal biotin on a linker: ado-ado).
Set-up: key: below the threshold = too weak to quantify, mostly under pKd 3.1 to 4

pKd | Binder
below the threshold | FVFESRKEIL [TBPL1, P62380]
below the threshold | PLATCDETSI [SEMA4F, O95754]

What follows are binders tested against GRIP2_7, Q9C0E4 (assay: holdup assay). Conditions: plain residues with an end cap or a label only (N-terminal biotin on a linker: ado-ado).
Set-up: key: below the threshold = too weak to quantify, mostly under pKd 3.1 to 4

Sequence of GRIP2_7, Q9C0E4 (Q9C0E4 934-1023): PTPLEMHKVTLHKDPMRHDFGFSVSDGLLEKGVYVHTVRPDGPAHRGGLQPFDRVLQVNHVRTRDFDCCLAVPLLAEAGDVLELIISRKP

pKd | Binder
below the threshold | FVFESRKEIL [TBPL1, P62380]
below the threshold | PLATCDETSI [SEMA4F, O95754]
